Patent publication US20260069689A1 (Regeneron, published 2026)
Substitutions are numbered along the chain they refer to.

B1: mAb14283 (antibody, V domains shown)
VH: QVQLQESGPGLVKPSGTLSLTCDVSGGSISSNNWWSWVRQRPGKGLQWIGEIYHNENTNYNPSLKSRVIMSIDKSKNQFSLKLTSVTAADTAVYYCARGDVLDWFDPWGQGTLVTVSS
VL: QSALTQPASVSGSPGQSTTISCTGTSSDVGGYNYVSWYQQYPGKAPKLMIYDVTNRPSGVSHRFSGSKSGNTASLTISGLQAEDEADYYCSSYTSSSTVIFGGGTKLTVLG
B2: mAb13458 (antibody, V domains shown)
VH: EVQLVESGGGLVQPGRSLRLSCAASGFTFDDYAMHWVRQAPGKGLEWVSGISWNSGSIGYADSVKGRFTISRDNAKNSLYLQMNSLRAEDTALYYCAKDIGITTPYWGQGTLVTVSS
VL: AIQMTQSPSSLSASVGDRVTITCRASQDIRNDLGWYQQKPGKAPKLLIYSASSLQTGVPSRFSGSGSGTDFTLTISSLHPEDFATYYCLQDYWYTWTFGQGTKVEIKR
B3: mAb13457 (antibody, V domains shown)
VH: B2 VH
VL: B2 VL with W93D
B4: mAb14294 (antibody, V domains shown)
VH: EVQLVESGGGLVQPGGSLRLSCAASGFTFSNHWMDWVRQAPGKGLVWVSRINSDGSSTDYADSVRGRFTMSRDNAKNTLYLQMSSLRAEDTAVYYCAREGMIFGAVIIPGWYFDLWGRGALVTVSS
VL: EIVLTQSPGTLSLSPGERATLSCRASQSVSSSQLAWYQQKPGQAPRLLIYGASSRATGIPDRFSGSGSGTDFTLTISRLEPEDFAVYYCQQYDSFGQGTKLEIKR
B5: mAb14235 (antibody, V domains shown)
VH: QITLKESGPTLVKPTQTLTLTCTFSGFSLNTGGVGVGWIRQPPGNALEWLALIYWDDDKRYNPSLKTRLTISKDTSKNQVVLTMTNMDPVDTATYFCAHLTIAVIVDFWGQGTLVTVSS
VL: QSALTQPASVSGSPGQSITISCTATSSDVGTYNYVSWFQHHPGKAPKLMIYEVTNRPSGVSNRFSGSKSGNTASLTISGLQAEDEADYYCSSYTTTSIVFGGGTKLTVLG
B6: mAb14258 (antibody, V domains shown)
VH: QLQLQESGPGLVKPSETLSLICTGSGDSISSSHYYWGWIRQPPGKGLEWIGSTYFSGSTYYNPSLKSRVSISVDTSKNQVSLKLISVTAADTAVYYCAREMGATLGDYWGPGTLVTVSS
VL: QSVLTQPPSASGTPGQRVTISCSGSSSNIGNNYVYWYQQFPGTTPRLLIYRNNERPSGVPDRFSGSKSGTSASLVISGLRSEDEADYYCAAWDDSLSAHYVFGTGTKVTVLG
B7: mAb14289 (antibody, V domains shown)
VH: QVQLVQSGPEVKKPGASVKVSCKASGYTFTSYAISWVRQAPGQGLEWMGWISAYNGNTNYAQKLQGRVTMTTDTFTSTAYMELRSLRSDDTAVYYCAVPADHITFDYWGQGTLVTVSS
VL: EIVLTQSPGTLSLSPGERATLSCRASQSVSSYLAWYQQKPGQAPRLLIHGASSRATGIPDRFSGSGSGTDFTLTISRLEPEDFAVYYCQQYGSSFLTFGGGTKVEIKR

Experiments:
[1] = molecular target: T1, SARS-CoV2 Spike ecto foldon Trimer expressed with a C-terminal myc-myc-hexahistidine (SARS-CoV-2, UniProt P0DTC2 14-1213); assay: SPR Biacore, mAb captured by anti-hFc, 25C
T1 construct: extracellular domain

[2] = molecular target: T1, SARS-CoV2 Spike ecto foldon Trimer …; assay: SPR Biacore, mAb captured by anti-hFc, 37C

Binder	Kd [1] [nM]	koff [1] [s⁻¹]	kon [1] [M⁻¹ s⁻¹]	t½ [1] [h]	Kd [2] [nM]	koff [2] [s⁻¹]	kon [2] [M⁻¹ s⁻¹]	t½ [2] [h]
B1	0.0539	8.66e-05	1.61e+06	2.22	0.0847	7.32e-05	865000	2.63
B2	0.0351	4.26e-05	1.21e+06	4.52	0.05	4.08e-05	815000	4.72
B3	0.0718			3.49	0.0779			3.22
B4	0.0329	2.29e-05	697000	8.39	0.033	2.29e-05	694000	8.4
B5	0.0474	3.69e-05	779000	5.21	0.0517	3.8e-05	735000	5.07
B6	0.0232	4.91e-05	2.12e+06	3.92	0.0776	7.93e-05	1.02e+06	2.43
B7	0.0696	6.35e-05	912000	3.03	0.0728	6.63e-05	911000	2.91
